From a protein production outcome set (Wang et al. 2014)

Experiment: label from the status in PepcDB records

Sequence | protein production
MYTECAYITVINNKARLFFMNMKTSFIAAAVALATVYSFSVSAVQKDITVTANIDSTLELLQADGSSLPSTMKLDFMPGKGLVHKSLQTRLYSNDQTKSVNVKLLNAPQLINVLDPTKTIDMEVTLGGRSLTTTNSVLEAKTLFPDGKTGDASALLNLDIGQKAGAALQNLPAGEYSGLVSLVISQAVTAGLEHHHHHH | failed
MVDAASTGLFLDAAGMKALGAAIAIAVTGLASAIAEKDIGTAAIGAMAENEGLFGKGLILTVIPETIVIFGLVVALLINQ | failed
MWSGVVTERKISRRLRLIKRVREEYVRDDVSCGFECCGGPCRASGKASVFAIPDANVVSRYRALLKSDYVAAIICQSVLSELSKNDERGLRDVARERGYPVFCDSFCRSTHGKGLEGVLEFYRAHLPQHNFTILDIGNIGEYGRYVSDDIRDLLENVDEKEATEYEEYVENLDILYGRKGLYRGTLEVSMYNCYSGFVVDGDVKVLVVGKKNMNRALSGDEVYVEVVDEYDEDGILLDNEEGTQETRKGAAGEGVFGKVVGIHRRKCRAVIGSISPRTVHGDGAQNVLVIPIDRRIPAIRIRTSQAEELMNKRLCVEIDGWERTSNYPSGHYYRRLGTLGDRNAEMEAVLVANGITYYNKNWAEILRVPWMNEDIFGMEKAYNEVREGTREDFRELSIVSIDPPDCEDIDDALHCRLLPNGNWEVGVHIADVTYYVTKGSEIDKIAADRGTTIYLPEWRIDMLPPALSTDLCSLVAGKDRAAFSVVWEMSSDVRVVRTHFCRSLIRSKRSFSYNEAYDAVQGLVDAGDEVSRSLRMLLEISRVLRSRRFAKGSLDLSTRQLVFREGGFEMKEYFPTNFLVEEFMVLANISVASFIYHHHPDSSLLRKHPPPSVLDIGLDIDTSSPRALSESLEKMEGVRKDLAKRMLIRSMNQAVYVVSGETPSLHHYGLATPIYTHFTSPIRRYADIIVHRILNHILQTAPTKEAQINKLGIVTFRARKRTDGESMDEVFVDEDMCRNMNSRHRAARKAAWECDKLTVYMALRNEEPVVRGFVTNIKPNGIVVYVPEYSLEEVVVSEGCFEMFQEVWVKIRRDDEKFFLRRRFTFEIVGLSSPC | failed
MVSRLVLGCGTVGHAVIGSLADRRGELFVFDGDESRVDSLRNESVAAEVRDVTDPAAITLPDRSVDMVVVAGERADRNRLAAIAADAAHPDAGLVVYLGFDATPKDRHRIDSVADRVVDPGAELLSHANSLTESGASQRLQALRQTLQGIDGRLGVFMHDNPDPDAIAAAVGLQRIAEDAGVDSQACYFGEISHQENRAFVNLLEFDLRNVETQSDAEFDAVALVDHSGPGVNDQLAPDTDVDIVIDHHPPTTDVDAGFTDIRPDTGATSTILVEYLRGYGIDVRTAVATALLYGIRVDTDDFAREITPRDFTAAAWLLPNADTDVLERIEAPSLSADTFDTIAAGIRNRQLNGSVLASCVGQITARDTLAQTADRLLAMRGVAVTFVYGYFDGTIYVSARSRRKDLDLGAVLRSAFDDLGSAGGHADMAGAQLPLGLFDAVGEDAATTLTEMIEEVVASRFFEEVHGGTSGIQQGE | failed
MTGTLLSFGHGYTARVLSRALAPQGWRIIGTSRNPDQMEAIRASGAEPLLWPGEEPSLDGVTHLLISTAPDSGGDPVLAALGDQIAARAAQFRWVGYLSTTAVYGDHDGAWVDETTPLTPTAARGRWRVMAEQQWQAVPNLPLHVFRLAGIYGPGRGPFSKLGKGGIRRIIKPGQVFSRIHVEDIAQVLAASMARPDPGAVYNVCDDEPVPPQDVIAYAAELQGLPLPPAVDFDKADLTPMARSFYSENKRVRNDRIKEELGVRLKYPNYRVGLEALQADAET | not failed
MNARDNKFNTWNDSRGNYWSDYEGSDENGDGIGDSAYAVNPEAGSMDYMPLMEYLHSSPVLPTARFTSDITEGFAPLSVRFKDFSENATSRLWMFGDGNTSDSPSPLHTFFNEGEYIVSLIVSNENDSDSASVTIRALEHHHHHH | not failed
MLRFGFAAVLLVLAGCSAPMGPEALGPGSYQAAPDPGPFLTPADAQRAFPAVVARVEPVAEAICRERTRGVPCDFQIAVDARPGLDPNAFQTLDDYGRPVIGLTLSLISDARNVDELAFVVGHETAHHILGHIPRQRETALTGAVLAGVLAQMGGADAQTIRSVQEFGANVGARSYSKNFELEADGLGTEIAIRAGYDPVHGAQFFTRLPDPGDTFLGSHPPNAQRIAAVRRAAESIGYVSAWLEHHHHHH | failed
MPWKNTESRYSTMTIALHWLMLVLLAVVYACIEFRGIFPKGSGGRTLIVEAHFMLGLTVFALVWLRLFARAQGVAPKILPTPPHWQRLLSTLMHWALYLFMIAMPILGWLTTSAKGHQVMFYGLDLPLLLAENKPLAKQLQGWHELLGTVGYWLIGLHALAGLYHHYVMRDNTLQRMWRKRGQA | failed
MIMKISMAMCKQPLPPSPTLDFPPARFGPNMLTLNPYGPKDKVVVIMGATGTGKSRLSVDIATRFRAEIINSDKIQVHQGLDIVTNKITSEESCGVPHHLLGVLPPEADLTAANYCHMANLSIESVLNRGKLPIIVGGSNSYVEALVDDKENKFRSRYDCCFLWVDVALPVLHGFVSERVDKMVESGMVEEVREFFDFSNSDYSRGIKKAIGFPEFDRFFRNEQFLNVEDREELLSKVLEEIKRNTFELACRQREKIERLRKVKKWSIQRVDATPVFTKRRSKMDANVAWERLVAGPSTDTVSRFLLDIASRRPLVEASTAVAAAMERELSRCLVA | failed
MDNANCVGGCKFETRSFQYRRRIPYSLGADPLPPVHPLSLKNLVDIDTDLISSQLYELYDSIILNDSGLERRYAFVQKLEQILKKEFPYKNIKTSLFGSTQSLLASNASDIDLCIITDPPQCAPTTCEVSAAFARNGLKKVVCISTAKVPIVKVWDSELQLSCDCNINKTISTLNTRLMRSYVLCDPRVRPLIVMIKYWAKRRCLNDAAEGGTLTSYTISCMVINFLQKRDPPILPSLQMLPHLQDSSTMTDGLDVSFFDDPDLVHGFGDKNEESLGILFVEFFRFFGYLFDYEHFVLSIRHGTFLSKRAKGWQFQLNNFLCVEEPFHTSRNLANTADEITMKGIQLEFRRVFRLLAYNCNVDDACSQFTFPSLTDTSFMDDYVNELQLEIVPGFSHGRDSSDTSCTESPPEPSHFAWAFDPYNATASPYYNQNINSSIDYSSIYSNDVPAIPPNVPYTFVDPYTYACYINNNSYLPPSYMDFYTWYNSPYPKSSHHFDERHGGDRHEKNLSNSRRYSRNKFHKKKQSSGPFQYYPDAFSFTPTDNNSPPSNSSSSEVVSPVSLHSEPVLSTVQAFKS | failed
MVNRFVLEPKTVLEGEQEQKLKDSEAAVASLQTSKEYLEKQVAEVENNLRELLQQEPGIAQQIMSMSM | failed
MKQRTLPAAFLLALSIASLAGCASPTVITLNDGREIQAVDTPKYDEDSGFYEFKQLDGKQTRINKDQVRTVKDLLEHHHHHH | failed
MTLYTNDYLEFYLTLVGWLINNGIWDMISDTGLFALPFLIIVVREWIKVRQEGADEGNKGVLSLARIETQLYIGYVVVSLCAIPVMSVGFDTLQFDQTRAKQCQVLLPAPGDTGWNTTFSSLTGKSARIPIWWAVMHSLSKGLNSGAVAAIPCGTDLRQMRMDVDAIRIDNPLLAQEVADFTHDCFGPSRARLFMRQPDLGAITKDPKTLQDLNWIGSRFLLNTSGYYDTDYSKTPRTAWPYDAKRDDGLPQVTGGGGYPTCKQWWSDGSIGLRDRLQAQVDPTLMNKLLGWAKWLSKDEVTDSMIRQVVSPSSQVNGDVYSDYGGQIGGTMWNGLARAGGTLGVGVGSLAYFPGMDIVRQALPMVMAFLKMAMVICLPLVLIIGAYQLKVAMTMSVVFFALIFVDFWFQLARWVDSTIIDVLYGSGSPHLSFDPVMGLNTTTQDAILNFVMGAMFIILPLFWMSALAWAGVQVSGVLEGLSRGTQSVERAGASGGGIAQQAVGSIGGKS | failed
MTALKICLIGGSGFIGRHLAAQLASRGHRITIASRRTGLPDFRVLPSAELVSADIHDPGQLAGLIAGHDAVVSMVGILHGSRAQFEKAHAQLPEKIVDACRRQGVRRLVHVSALGAAQDAPSDYQQTKALGELAVESSGLDWTILRPSVVFGHGDAFLNMFAGLQKRLPVLPLAGAGCKMAPVWVEDVARAVCECLARKETEGRKLDLAGPETYTLAQLARLAGRASGHPRPVFGLPYGLAMLQAALMEWLPGPTLMSRDNVRSLQWDNVSDQPFPSALLGFEPAALSALAPGWLAGRDRNDTASRYRAKAAR | failed
MSTRLCEPSLRDDGAQRGTPASHGKWCDTGAFKLDETPSPVVANVSSTSDASFQFNRTPSPGKHQNHAADRSMWSLDDFVIIRKLDEGRFGKVYLAREKQSKCAVVLKCISKDMIRFHSLAHQLQREVELQEYAGRYHKNVLRLFAYFWDDVRIVLVLEYADSGTLQDLLDCYREKEQRSSLPDDKVRTILLQLLSALAFLHERDIIHRDVKPDNILFHGEKLLLADFSWAVRVNNSDPRYCRRHTVCGTLDYLAPEQVLKRGCTTKADLWAVGVVAYRMLCGFLPFEMLDARDVCSCIASGAIRYPSQLSPTARHFLQGLLRVDEALRFSCQEALNHPFMRGDCNCRISNRYIESKHRARAEEPVLQHQGSFDTT | failed
MDKTNLGELINQGKSLLDESVEGFNVGEYHKGAKDGLTVEINKAEEVFNKEDATEEEINLAKESLEGAIARFNSLLIEESTGDFNGNGKIDIGDLAMVSKNIGSTTNTSLDLNKDGSIDEYEISFINHRILNLEHHHHHH | not failed
MRYVLALFFYRVFLLLLTPIVLLVLLIRSFNHPEYRQRLFERLGFFPKPYKQGGIVVHAASVGEVIALKSFIEKLLVNYPDLPITITSFTPTGSAQITKLFGRRVQHGYLPLDIFPCTTLFLHRLKPKMIIFMETELWPNLIAQCDQHQIKLLLINGRLSKKSLTSYQKLSALMAPCLNRFDMILTQSQENLTHFLQLGAHQSRCVNSGNLKFDISVNEQVINKKAELAKLLFADDSQAKRTVWLVASTHEGDEAITLTAFKELLSQYPSLLLVLVPRHPERFEQVANLCLTKQLSLAKRSENTIINNEQVWLLDSLGELMAAFALSDIVTMGGSFSEVGGHNPLEPALFNKPVIVGHNMSNFNEIMQQLRQENAIIELTNNTPTNESSAQLVNEVSALLQQPTRQKTLGENALKVVLKNQGASEKTLAQVVNLLPTRVNITSTTPLGDNS | failed
MRRICKVLMVIISIILGSGAPLNMAIPPLLALAAPDTSSSSTMSSSAISKVTDTNVMAVSADVTSTTDTSDTSSSDSTSATSTTTGNDTTETADTAVESGTVGTVAWTIDDAGVLTLSGGSFADLTGKRSPWYDYASSITNIKITDEITVTTASNYGYLFASLANVATVTGLNKLSMSGVTSTQSIFYRDSKLTSVDFGQTDFSTVTTMESMFEGCSVLTKVNTTNWNVSHVKSFKRTFYMCGKLTMLDVSNWDVTQVTNLDSTFSGCSSLPELDVSRWNTANVTTLASTFYSCSSVKIINASGWDTARVTDMTATFMNCTLATELNVSGWDTAKVTSMSRMFFYCENVIQLDVSGWITSQVTSLGSMFQNCSKVVTLDVGTWDTSKVTDMSFLFGGCSSLTTLNLEKWDTGSVTTLYSTFYNCSGLTSLLVDTWDTSKVTNCFWTFGGCSSLTTLNLRSWDLQSATASYGNFFNGSKKLQHLTLGPNFTFHNDKTMYLPEPSKQLPYNGTWQRNNDDPTYTSAELMTNYDGATMAGTYNWVKTSGTVLVKYVDGDGVEIADEETSSGTSGDAYQTTAKTIDGYTLHATPTNATGTYDASTITVTYVYDGNLFFNSSPTMLDFGSHTISGTTETYAPTLDKTLAVQNNGQISSTWNLTAELDSSGFVGADTGKMLLATLYYQTDDGKMTLSPGVAVQVYSQTTTDHKSVDISEHWSSNLGLLLEVPNGAAMADTYQGTISWRLNNTVANN | failed
